These results are taken from patent US20190134153A1, “IMMUNOMODULATORY EFFECT OF INHALED KINASE INHIBITOR PEPTIDES IN LUNG” (MOERAE MATRIX, INC., priority 2017, published 2019).

Some targets named below: CHK2(R145W)(h) (Homo sapiens, UniProt O96017, R145W); CDK2/cyclinA(h) (Homo sapiens, UniProt P24941); CSK(h) (Homo sapiens, UniProt P41240); Flt4(h) (Homo sapiens, UniProt P35916); CDK3/cyclinE(h) (Homo sapiens, UniProt Q00526); mTOR/FKBP12(h) (Homo sapiens, UniProt P42345); FGFR3(h) (Homo sapiens, UniProt P22607).
Common to all, as to assay: Kinase Profiling Assay
Common to all, as to type: biochemical
Details in all cases: 100 μM

For a further assay, the target named is T1, MKK6(h) (Homo sapiens, UniProt P52564).
T1 sequence (P52564 1-334): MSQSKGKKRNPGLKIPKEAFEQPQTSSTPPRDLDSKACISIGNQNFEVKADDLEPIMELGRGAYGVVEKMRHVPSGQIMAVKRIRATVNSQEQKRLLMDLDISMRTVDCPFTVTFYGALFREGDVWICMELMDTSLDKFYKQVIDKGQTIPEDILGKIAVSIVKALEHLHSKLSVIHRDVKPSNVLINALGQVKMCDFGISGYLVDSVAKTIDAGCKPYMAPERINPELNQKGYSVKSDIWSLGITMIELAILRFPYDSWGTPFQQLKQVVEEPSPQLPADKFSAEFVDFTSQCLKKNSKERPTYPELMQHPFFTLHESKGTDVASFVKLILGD

A further assay deals with T2, EphA3(h) (Homo sapiens, UniProt P29320).
T2 sequence (P29320 21-983): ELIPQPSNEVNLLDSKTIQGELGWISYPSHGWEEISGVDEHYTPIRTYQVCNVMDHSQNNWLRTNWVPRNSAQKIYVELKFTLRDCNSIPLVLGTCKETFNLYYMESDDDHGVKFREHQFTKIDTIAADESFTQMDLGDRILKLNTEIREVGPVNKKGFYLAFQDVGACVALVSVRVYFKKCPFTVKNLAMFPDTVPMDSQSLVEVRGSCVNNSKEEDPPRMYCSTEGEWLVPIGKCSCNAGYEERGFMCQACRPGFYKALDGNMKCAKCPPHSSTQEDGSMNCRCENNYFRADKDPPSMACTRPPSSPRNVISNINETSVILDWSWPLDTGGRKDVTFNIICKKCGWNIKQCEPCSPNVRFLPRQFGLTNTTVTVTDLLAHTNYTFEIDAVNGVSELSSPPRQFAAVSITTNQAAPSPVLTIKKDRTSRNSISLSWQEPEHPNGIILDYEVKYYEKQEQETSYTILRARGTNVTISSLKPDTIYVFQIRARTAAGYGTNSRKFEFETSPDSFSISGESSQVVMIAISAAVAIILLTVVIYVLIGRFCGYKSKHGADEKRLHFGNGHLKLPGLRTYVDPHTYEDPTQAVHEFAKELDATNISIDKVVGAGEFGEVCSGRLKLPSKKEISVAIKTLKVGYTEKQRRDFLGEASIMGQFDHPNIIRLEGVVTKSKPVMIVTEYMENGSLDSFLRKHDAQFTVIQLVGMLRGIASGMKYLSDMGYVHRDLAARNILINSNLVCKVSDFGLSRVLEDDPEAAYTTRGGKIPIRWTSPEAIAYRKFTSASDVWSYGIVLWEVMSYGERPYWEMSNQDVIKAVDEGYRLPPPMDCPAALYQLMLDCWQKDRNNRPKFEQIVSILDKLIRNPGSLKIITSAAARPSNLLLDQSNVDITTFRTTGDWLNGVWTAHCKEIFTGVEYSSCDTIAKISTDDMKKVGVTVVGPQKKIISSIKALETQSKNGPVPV

A further assay addresses T3, Txk(h) (Homo sapiens, UniProt P42681).
T3 sequence (P42681 1-527): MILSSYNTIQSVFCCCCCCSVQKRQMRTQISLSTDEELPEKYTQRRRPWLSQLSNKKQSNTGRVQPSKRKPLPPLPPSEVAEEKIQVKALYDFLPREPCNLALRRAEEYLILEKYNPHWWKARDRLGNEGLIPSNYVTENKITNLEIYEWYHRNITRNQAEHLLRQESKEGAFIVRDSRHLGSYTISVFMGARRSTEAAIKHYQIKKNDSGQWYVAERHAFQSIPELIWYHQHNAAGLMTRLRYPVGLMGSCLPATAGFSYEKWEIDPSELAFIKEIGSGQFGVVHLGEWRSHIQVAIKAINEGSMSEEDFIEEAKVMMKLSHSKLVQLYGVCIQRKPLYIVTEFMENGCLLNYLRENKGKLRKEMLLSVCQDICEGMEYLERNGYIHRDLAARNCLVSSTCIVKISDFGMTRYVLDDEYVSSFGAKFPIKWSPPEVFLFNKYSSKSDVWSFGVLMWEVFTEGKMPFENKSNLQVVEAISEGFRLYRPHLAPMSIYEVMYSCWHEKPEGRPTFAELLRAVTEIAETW

FGFR3(h), sequence (P22607 23-806): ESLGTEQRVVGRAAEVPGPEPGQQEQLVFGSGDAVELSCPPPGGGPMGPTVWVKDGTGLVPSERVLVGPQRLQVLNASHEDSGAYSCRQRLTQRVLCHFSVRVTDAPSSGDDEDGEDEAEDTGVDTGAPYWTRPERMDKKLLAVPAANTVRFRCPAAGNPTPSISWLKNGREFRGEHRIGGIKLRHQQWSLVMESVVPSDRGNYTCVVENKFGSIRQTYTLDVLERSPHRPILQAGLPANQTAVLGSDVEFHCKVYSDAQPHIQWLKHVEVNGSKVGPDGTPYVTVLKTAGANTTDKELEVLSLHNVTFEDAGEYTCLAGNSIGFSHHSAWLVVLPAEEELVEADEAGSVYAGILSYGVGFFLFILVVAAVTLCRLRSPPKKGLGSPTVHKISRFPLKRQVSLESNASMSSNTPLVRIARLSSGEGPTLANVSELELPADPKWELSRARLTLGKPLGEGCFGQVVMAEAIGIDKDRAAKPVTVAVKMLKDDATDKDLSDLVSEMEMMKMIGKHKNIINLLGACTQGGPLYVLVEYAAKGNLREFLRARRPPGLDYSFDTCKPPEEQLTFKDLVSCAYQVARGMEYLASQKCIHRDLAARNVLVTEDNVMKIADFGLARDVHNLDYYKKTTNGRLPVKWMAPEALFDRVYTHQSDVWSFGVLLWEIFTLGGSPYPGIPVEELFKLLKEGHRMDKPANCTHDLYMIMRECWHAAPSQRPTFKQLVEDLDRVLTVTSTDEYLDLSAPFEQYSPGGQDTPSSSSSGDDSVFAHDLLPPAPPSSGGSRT
CHK2(R145W)(h), sequence (O96017 whole entry R145W): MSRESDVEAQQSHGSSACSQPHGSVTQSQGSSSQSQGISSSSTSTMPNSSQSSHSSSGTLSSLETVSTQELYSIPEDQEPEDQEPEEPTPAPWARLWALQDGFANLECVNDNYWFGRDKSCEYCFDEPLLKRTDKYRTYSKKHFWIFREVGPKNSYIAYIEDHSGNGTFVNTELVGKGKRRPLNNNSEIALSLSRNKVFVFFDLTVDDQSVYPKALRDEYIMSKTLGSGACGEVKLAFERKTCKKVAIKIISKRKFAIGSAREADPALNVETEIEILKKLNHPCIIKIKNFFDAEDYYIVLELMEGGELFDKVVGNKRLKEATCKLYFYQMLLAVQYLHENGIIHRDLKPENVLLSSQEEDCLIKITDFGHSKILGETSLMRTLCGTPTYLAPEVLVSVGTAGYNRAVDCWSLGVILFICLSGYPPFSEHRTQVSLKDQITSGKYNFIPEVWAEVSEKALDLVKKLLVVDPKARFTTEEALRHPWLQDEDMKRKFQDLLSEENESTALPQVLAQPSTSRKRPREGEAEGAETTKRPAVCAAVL
mTOR/FKBP12(h), sequence (P42345 1362-2549 limits assumed): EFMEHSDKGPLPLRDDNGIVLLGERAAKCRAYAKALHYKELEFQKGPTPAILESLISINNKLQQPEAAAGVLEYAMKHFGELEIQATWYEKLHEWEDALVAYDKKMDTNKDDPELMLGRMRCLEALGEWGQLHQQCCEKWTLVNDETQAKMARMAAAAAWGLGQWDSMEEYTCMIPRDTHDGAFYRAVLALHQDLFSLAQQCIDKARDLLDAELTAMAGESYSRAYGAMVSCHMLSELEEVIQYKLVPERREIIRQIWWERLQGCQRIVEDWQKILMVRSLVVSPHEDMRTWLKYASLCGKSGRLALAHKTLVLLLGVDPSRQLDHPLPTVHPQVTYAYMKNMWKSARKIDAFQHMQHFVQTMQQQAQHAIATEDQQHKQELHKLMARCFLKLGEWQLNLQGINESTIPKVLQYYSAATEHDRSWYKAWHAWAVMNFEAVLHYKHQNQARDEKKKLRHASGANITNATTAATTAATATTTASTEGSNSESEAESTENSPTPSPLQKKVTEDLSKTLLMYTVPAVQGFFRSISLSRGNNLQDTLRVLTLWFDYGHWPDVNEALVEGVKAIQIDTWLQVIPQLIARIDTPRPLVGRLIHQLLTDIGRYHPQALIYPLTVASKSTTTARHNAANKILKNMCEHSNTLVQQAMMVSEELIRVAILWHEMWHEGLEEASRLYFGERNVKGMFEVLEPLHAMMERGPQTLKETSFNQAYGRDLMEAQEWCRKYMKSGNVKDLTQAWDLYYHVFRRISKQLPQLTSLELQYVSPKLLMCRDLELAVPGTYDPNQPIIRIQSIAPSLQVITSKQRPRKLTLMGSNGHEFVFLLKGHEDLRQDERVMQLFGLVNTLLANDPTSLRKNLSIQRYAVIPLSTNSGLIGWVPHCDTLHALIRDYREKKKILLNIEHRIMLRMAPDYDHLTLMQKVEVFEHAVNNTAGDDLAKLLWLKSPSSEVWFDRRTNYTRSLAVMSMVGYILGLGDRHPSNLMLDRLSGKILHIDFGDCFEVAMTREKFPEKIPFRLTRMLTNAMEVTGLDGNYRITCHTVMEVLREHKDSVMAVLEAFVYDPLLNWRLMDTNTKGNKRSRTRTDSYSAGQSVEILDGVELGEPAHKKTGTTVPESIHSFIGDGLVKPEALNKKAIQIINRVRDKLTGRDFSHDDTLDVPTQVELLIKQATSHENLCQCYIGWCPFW
Flt4(h), sequence (P35916 25-1363): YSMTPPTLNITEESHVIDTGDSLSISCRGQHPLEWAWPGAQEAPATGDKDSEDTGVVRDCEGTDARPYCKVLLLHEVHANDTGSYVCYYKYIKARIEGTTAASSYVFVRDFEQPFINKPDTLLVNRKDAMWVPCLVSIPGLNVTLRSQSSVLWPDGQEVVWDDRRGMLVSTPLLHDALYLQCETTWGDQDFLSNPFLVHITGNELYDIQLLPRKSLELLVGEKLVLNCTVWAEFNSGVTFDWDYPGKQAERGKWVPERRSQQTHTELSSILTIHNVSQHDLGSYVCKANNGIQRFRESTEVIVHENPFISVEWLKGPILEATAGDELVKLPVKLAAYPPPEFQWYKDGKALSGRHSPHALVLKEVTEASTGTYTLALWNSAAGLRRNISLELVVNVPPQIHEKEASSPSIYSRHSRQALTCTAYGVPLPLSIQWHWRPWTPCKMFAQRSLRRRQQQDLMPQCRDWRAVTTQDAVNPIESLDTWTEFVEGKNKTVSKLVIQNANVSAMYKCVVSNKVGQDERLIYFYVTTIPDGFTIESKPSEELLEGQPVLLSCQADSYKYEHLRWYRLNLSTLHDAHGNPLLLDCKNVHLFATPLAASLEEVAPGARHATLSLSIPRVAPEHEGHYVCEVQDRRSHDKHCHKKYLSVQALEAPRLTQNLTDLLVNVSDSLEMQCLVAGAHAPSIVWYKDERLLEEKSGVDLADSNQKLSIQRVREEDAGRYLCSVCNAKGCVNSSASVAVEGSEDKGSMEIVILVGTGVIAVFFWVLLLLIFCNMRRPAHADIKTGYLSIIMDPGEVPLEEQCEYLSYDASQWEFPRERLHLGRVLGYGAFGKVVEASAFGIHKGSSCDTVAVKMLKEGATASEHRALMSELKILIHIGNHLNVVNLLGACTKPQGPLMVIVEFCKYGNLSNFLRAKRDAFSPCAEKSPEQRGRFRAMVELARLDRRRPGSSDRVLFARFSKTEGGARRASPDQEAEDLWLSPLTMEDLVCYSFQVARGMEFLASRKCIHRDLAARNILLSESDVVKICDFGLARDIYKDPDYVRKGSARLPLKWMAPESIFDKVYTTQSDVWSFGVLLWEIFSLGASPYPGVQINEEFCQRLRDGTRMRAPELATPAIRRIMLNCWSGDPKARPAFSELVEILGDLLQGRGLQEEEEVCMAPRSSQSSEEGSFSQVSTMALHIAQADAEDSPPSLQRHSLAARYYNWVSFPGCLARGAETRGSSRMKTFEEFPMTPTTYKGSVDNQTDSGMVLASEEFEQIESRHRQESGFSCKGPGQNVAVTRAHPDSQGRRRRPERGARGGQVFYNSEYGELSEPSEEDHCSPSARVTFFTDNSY
CDK3/cyclinE(h), sequence (Q00526 whole entry): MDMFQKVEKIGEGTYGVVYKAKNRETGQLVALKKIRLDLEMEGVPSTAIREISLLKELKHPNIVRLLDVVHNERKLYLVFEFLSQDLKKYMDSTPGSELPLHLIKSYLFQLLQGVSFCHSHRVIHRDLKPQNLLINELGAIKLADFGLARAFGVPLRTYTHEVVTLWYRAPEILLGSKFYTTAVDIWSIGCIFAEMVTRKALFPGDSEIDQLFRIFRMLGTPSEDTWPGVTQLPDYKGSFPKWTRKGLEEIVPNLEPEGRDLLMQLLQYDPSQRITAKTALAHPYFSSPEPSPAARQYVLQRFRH
CDK3/cyclinE(h), sequence (P24864 whole entry partner): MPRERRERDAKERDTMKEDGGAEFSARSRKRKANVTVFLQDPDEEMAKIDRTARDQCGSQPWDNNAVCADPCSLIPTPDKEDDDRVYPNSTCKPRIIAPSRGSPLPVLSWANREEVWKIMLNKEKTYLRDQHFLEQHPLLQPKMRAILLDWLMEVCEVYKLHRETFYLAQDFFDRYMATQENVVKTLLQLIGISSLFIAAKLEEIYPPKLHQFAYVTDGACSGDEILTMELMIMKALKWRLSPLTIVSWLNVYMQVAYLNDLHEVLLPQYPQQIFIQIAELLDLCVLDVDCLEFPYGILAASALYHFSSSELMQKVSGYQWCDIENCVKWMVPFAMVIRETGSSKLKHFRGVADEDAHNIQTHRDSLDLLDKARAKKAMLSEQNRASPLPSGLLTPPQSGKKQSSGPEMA
CSK(h), sequence (P41240 whole entry): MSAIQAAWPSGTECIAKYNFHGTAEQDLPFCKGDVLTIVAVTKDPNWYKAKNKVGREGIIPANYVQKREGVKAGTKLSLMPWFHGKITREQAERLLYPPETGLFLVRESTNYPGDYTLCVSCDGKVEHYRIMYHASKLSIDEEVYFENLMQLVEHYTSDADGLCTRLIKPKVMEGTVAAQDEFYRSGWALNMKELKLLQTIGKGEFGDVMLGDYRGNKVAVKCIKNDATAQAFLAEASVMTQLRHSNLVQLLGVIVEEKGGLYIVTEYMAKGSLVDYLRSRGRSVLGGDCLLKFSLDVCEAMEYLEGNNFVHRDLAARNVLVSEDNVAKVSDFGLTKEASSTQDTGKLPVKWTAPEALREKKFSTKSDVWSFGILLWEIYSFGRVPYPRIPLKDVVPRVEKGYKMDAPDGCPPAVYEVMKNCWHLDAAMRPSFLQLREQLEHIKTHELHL

On to FAKLAARLYRKALARQLGVAA [MMI-0300], for which the “% activity” value is on record as 33% in the assay with CHK2(R145W)(h); 86% in the assay with CDK2/cyclinA(h); 48% with MKK6(h); 6% in the assay with EphA3(h); 49% in the assay with CSK(h); 83% with Flt4(h). Moreover, the “% activity” value with CDK3/cyclinE(h) stood at 94%; with mTOR/FKBP12(h), 145%; in the assay with Txk(h), 48%.
YARAAARQARAKALNRQLGVA [MMI-0200]: the “% activity” value in the assay with CHK2(R145W)(h) stood at 81%; with MKK6(h), 98%; with CSK(h), 33%; with FGFR3(h), 208%; in the assay with mTOR/FKBP12(h), 118%; in the assay with Txk(h), 98%.
Consider KAFAKLAARLYRKALARQLGVAA [MMI-0400], for which the “% activity” value in the assay with CHK2(R145W)(h) turned out to be 31%; in the assay with CDK2/cyclinA(h), 92%; with MKK6(h), 44%; with EphA3(h), 12%; in the assay with CSK(h), 16%; with Flt4(h), 89%. Also, the “% activity” value with CDK3/cyclinE(h) worked out at 92%; in the assay with FGFR3(h), 0%; in the assay with mTOR/FKBP12(h), 125%; with Txk(h), 37%.
With HRRIKAWLKKIKALARQLGVAA [MMI-0500], the “% activity” value with CHK2(R145W)(h) stood at 3%; with CDK2/cyclinA(h), 87%; with MKK6(h) it was 18%; in the assay with EphA3(h), 33%; in the assay with CSK(h), 2%; with Flt4(h), 73%. Besides, the “% activity” value with CDK3/cyclinE(h) was 8%; with FGFR3(h) it was 10%; with mTOR/FKBP12(h), 140%; with Txk(h), 10%.
